Data reported in US12252714B2, “Halogenation of complex organic compounds” (REGENTS OF THE UNIVERSITY OF MICHIGAN, priority 2018, dated 2025).
Positions count from the first letter of the chain named. Numbers in names are those of the source. Unless stated, no cut-off for active and inactive is given here. Read-outs that look alike come from different tables or passages of the source.

B1: Rdc2: eukaryotic FDH Rdc2, literature comparison (protein, UniProt B3FWT7 22-519, looked up)
Flavin-dependent halogenase …: AAALAREGNDVVLLEADQHPRYHIGESMLPSLRPLLRFIDLEDKFDAHGFQKKLGAAFKLTSKREGSHGPRGYSWNVVRSESDEILFNHARESGAQAFQGIKINAIEFEPYEEEYPNGEKVANPGKPTSAKWSSKDGSSGDIAFKYLVDATGRIGIMSTKYLKNRHYNEGLKNLAIWGYYKNNIPWAQGTPRENQPFFEGMRDGAGWCWTIPLHNGTVSVGAVMRKDLFFEKKKSLGENATNTQIMAECMKLCPTIGELLAPAELVSDIKQATDYSYSATAYAGPNFRIVGDAGCFIDPFFSSGHHLAVAGALAAAVSINASIKGDCTEYEASRWHAKKVDEGYTLFLLVVMAALKQIRMQENPVLSDVDEDGFDRAFQFLRPEAVKKFTKEDVAQTIDFAVHALNNMAELDMDIPEHMINGDKEGENGVTNGNNGAAKTAGLASNMEKLTNDEEKVLNGLRILGKAAPGGTLADFEGTAIDGLMPRLEHGKLGLNKV
B2: MalA′: flavin-dependent halogenase from M. graminicola, generated by site-directed mutagenesis of malA: L276P/R428P (protein, UniProt L0E155 1-667, looked up, variant L276P R428P)
Flavin-dependent halogenase …: MAPTPKYTFTERAAAGNLSDAEILNSNNPTGSELPDESDVVVGGAGIHGLIYALHASKYKPNNLKISVIEKNTRPGYKIGESTLPIFYTWCKLHGISAAYLLRLFGLKDGLCFYFLDRENQGQYTDFCSVGAPGLVLASLQIERPMSELLFTILAQRNGVNVYHGREVDFKSTVVQGGGQGNKIAVSRGKYDSTPKTIDSALFVDATGRFRQFCSKKAPRHRFDGWNCNAFWGYFTAPKDESKIPFDLYEGDHTNHLCFPEGWVWVIRLPSWEGSPIANLMDMVTYILECADAGVPGDELPSSEELARMFGLKFQWVTSIGFAVRNDVKYPEDLSAYGTREAEQKFNYFVQKYELLQQFMSNFELIENLYGPGTTWFIRKTLAYQSPVVSGPGWLAIGDACGFTNPLYSPGINVGMSTSTWAAQLSHPIVEIGKSAPADAAESSIRKLLVPYDDYCKSLVPALEQMNRFNYVCYRDTRLGPQVACLWQFFAGIERYLSDVNIETFAHYAIKWVWGAMVPEYQQVAQKCIEHIETVPLDERLPDAMVDELLAFSNRIKSAAVAADDFSLRWDAILRSFDRSLNFVEGKTSRDIYTRQCSGCGAWLQLRPDWKKCHSCGLLGTEPQTAVTFDPPLTAEEEALLYAAWNTAPKYDPSKELKLPTPTRPAA
B3: MalA H253A: MalA halogenase variant, His253 substituted with alanine (protein, UniProt L0E155 1-667, looked up, variant H253A)
Flavin-dependent halogenase …: B2 Flavin-dependent halogenase … with H253A, P276L, P428R
B4: D109A: MalA halogenase D109A mutant (protein, listed as Malbranchea aurantiaca)
chain: B2 Flavin-dependent halogenase … with D109A, P276L, P428R
modifications: Wild-type MalA protein
notes: MalA halogenase D109A mutant
B5: S129A/I493S: C9-selective MalA halogenase double mutant (protein, listed as Malbranchea aurantiaca)
chain: B2 Flavin-dependent halogenase … with S129A, P276L, P428R, I493S
modifications: MalA (S129A/I493S) protein
B6: E494Q: MalA halogenase variant, Glu494 substituted with glutamine (protein, UniProt L0E155 1-667, looked up, variant E494Q)
Flavin-dependent halogenase …: B2 Flavin-dependent halogenase … with P276L, P428R, E494Q
B7: MalA G131S: C9-selective MalA halogenase mutant (protein, UniProt L0E155 1-667, looked up, variant G131S)
Flavin-dependent halogenase …: B2 Flavin-dependent halogenase … with G131S, P276L, P428R
B8: MalA W265A: MalA flavin-dependent halogenase variant with W265A substitution (protein, UniProt L0E155 1-667, looked up, variant W265A)
Flavin-dependent halogenase …: B2 Flavin-dependent halogenase … with W265A, P276L, P428R
B9: MalA F489H: MalA halogenase variant, Phe489 substituted with histidine (protein, UniProt L0E155 1-667, looked up, variant F489H)
Flavin-dependent halogenase …: B2 Flavin-dependent halogenase … with P276L, P428R, F489H
B10: MalA H253F: MalA halogenase variant, His253 substituted with phenylalanine (protein, UniProt L0E155 1-667, looked up, variant H253F)
Flavin-dependent halogenase …: B2 Flavin-dependent halogenase … with H253F, P276L, P428R
B11: E494A: MalA halogenase variant, Glu494 substituted with alanine (protein, UniProt L0E155 1-667, looked up, variant E494A)
Flavin-dependent halogenase …: B2 Flavin-dependent halogenase … with P276L, P428R, E494A
B12: MalA S129 Å/P85S: C8-selective MalA halogenase double mutant (protein, UniProt L0E155 1-667, looked up, variant S129A P85S)
Flavin-dependent halogenase …: B2 Flavin-dependent halogenase … with P85S, S129A, P276L, P428R
B13: MalA W263A: MalA flavin-dependent halogenase variant with W263A substitution (protein, UniProt L0E155 1-667, looked up, variant W263A)
Flavin-dependent halogenase …: B2 Flavin-dependent halogenase … with W263A, P276L, P428R
B14: MalA K108A: MalA halogenase mutant of the catalytic lysine Lys108 (protein, UniProt L0E155 1-667, looked up, variant K108A)
Flavin-dependent halogenase …: B2 Flavin-dependent halogenase … with K108A, P276L, P428R
B15: E494D: MalA halogenase variant, Glu494 substituted with aspartate (protein, listed as Malbranchea graminicola)
chain: B2 Flavin-dependent halogenase … with E494D
modifications: Wild-type MalA' protein
notes: MalA halogenase variant, Glu494 substituted with aspartate

Tests used:
[1] = cited from earlier work
[2] = MalA biochemical activity assays, mutants versus wild-type MalA; settings: for site-selectivity profile of bromination: bromination of compound 2; for site-selectivity of chlorination: chlorination of compound 2, C8 versus C9
Experimental: Biochemical activity assays were performed in a 100 μL volume with the following components: 18 μM MalA, 54 μM HpaC flavin reductase,^3 100 μM FAD, 50 mM NaCl, 250 μM substrate, 5 mM NADH, and brought to total volume with reaction buffer (same as storage bufferNaBr). The chlorination reactions proceeded for 20 minutes and the bromination reactions proceeded overnight. The reactions were extracted with ethyl acetate ([…], in triplicate) and dried down under nitrogen gas. The dried extract was resuspended in LC/MS grade methanol to a concentration of around 10 μM for LC/MS analysis. High resolution mass spectrometry was performed using electrospray ionization on an Agilent quadrupole time-of-flight spectrometer (Q-TOF 6500 series). Biochemical activity was monitored via the following HPLC method using acetonitrile and water: 65% acetonitrile for 5 minutes, gradient over 10 minutes to 95% acetonitrile, 95% acetonitrile for 5 minutes, gradient over 2 minutes to 65% acetonitrile, 65% acetonitrile for 11 minutes to re-equilibrate with a flow rate of 0.3 mL/minute, monitoring at 240 nm on a Phenomenex Lux cellulose-3, cellulose Tris (4-methylbenzoate) 250×4.6 mm column.

Molecule	halogenase activity relative to wild-type MalA ([2]; chlorination of compound 2)	site-selectivity of chlorination [2]	other results
B1	–	–	catalytic efficiency ([1]; initial chlorination reaction): 2.93 min⁻¹ mM⁻¹; catalytic efficiency ([1]; second chlorination reaction): 0.11 min⁻¹ mM⁻¹
B2	essentially identical to MalA	–	–
B3	–	selective for producing the C9-chlorinated compound 3	site-selectivity profile of bromination [2]: same product profile as the wild-type MalA
B4	very low activity	–	–
B5	–	C9-selective	–
B6	inactivated	–	–
B7	–	C9-selective	–
B8	drastic decrease in activity	–	–
B9	significantly decreased	–	–
B10	–	selectivity for producing the C8-chlorinated compound 4	site-selectivity profile of bromination [2]: same product profile as the wild-type MalA
B11	inactivated	–	–
B12	–	C8-selective	–
B13	–	–	production of compound 1 relative to wild-type MalA ([2]; chlorination of compound 2): 5%; production of compound 3 relative to wild-type MalA ([2]; chlorination of compound 2): 50%; production of compound 4 relative to wild-type MalA ([2]; chlorination of compound 2): 60%
B14	inactive	–	–
B15	slight activity	–	–
